Here are results for one molecule from US20140315799A1 (J DAVID GLADSTONE INSTITUTES, published 2014).

The target of the test is T1, endogenous p75^NTR in 3T3L1 adipocytes (mouse, UniProt Q9Z0W1 32-427).
T1 construct: whole, on cells
T1 sequence (looked up): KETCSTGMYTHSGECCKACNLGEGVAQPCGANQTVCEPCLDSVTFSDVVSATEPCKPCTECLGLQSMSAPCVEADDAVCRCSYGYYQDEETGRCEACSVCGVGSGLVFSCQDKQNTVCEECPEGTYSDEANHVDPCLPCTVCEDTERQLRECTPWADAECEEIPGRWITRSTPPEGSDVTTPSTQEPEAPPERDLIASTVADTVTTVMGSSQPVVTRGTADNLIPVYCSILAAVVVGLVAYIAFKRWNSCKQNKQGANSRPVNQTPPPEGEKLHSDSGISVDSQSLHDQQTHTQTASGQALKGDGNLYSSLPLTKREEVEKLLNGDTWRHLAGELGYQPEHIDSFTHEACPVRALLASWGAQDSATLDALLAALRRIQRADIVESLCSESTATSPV
The test can be described thus: endogenous co-IP from 3T3L1 adipocytes (anti-p75NTR IP, anti-Rab31 blot).

Procedure: Briefly, cell lysates were prepared in 1% Nonidet P-40 (NP-40; non-ionic detergent), 200 mM NaCl, 1 mM EDTA, and 20 mM Tris-HCl, pH 8.0. Immunoprecipitations (IPs) were performed with an anti-p75^NTR antibody and immunoblot with anti-Rab31 and anti-p75^NTR.
(C) Immunoprecipitation of p75^NTR with Rab31 and Rab5 in 3T3L1 adipocytes stimulated with insulin. Lysates were immunoprecipitated with anti-p75^NTR antibody, and western blots were developed with anti-Rab31 and anti-Rab5 antibodies.

B1: endogenous Rab31 in 3T3L1 adipocytes (enzyme, UniProt Q921E2 1-195, looked up)
chain: MMAIRELKVCLLGDTGVGKSSIVCRFVQDHFDHNISPTIGASFMTKTVPCGNELHKFLIWDTAGQERFHSLAPMYYRGSAAAVIVYDITKQDSFHTLKKWVKELKEHGPENIVMAIAGNKCDLSDIREVPLKDAKEYAESIGAIVVETSAKNAINIEELFQGISRQIPPLGPQENGNSGGIKLGNQSLQASRRCC
Turning to B1, the binding result is “binds”.
